# Numbering of substitutions follows the chain as printed. In names and notes the source's numbering stands.
# B1: X02.83 (antibody)
# heavy: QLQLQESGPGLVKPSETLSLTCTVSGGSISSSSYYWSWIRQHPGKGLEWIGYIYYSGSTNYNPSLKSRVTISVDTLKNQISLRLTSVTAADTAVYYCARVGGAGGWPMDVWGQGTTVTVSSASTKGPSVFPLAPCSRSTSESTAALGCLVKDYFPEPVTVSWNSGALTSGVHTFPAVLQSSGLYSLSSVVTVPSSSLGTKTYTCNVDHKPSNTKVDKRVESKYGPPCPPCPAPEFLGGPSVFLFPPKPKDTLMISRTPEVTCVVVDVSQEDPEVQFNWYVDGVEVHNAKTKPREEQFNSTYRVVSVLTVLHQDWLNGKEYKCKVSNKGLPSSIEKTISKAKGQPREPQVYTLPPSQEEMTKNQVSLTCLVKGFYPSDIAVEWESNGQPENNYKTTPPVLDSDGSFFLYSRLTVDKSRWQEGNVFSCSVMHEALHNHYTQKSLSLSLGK
# VL: QAVLTQPASLSASPGASARLTCTLPSDINVRYYNIYWYQQKPGSPPRYLLYYYSDSHKGQGSGVPSRFSGSKDVSTNSGILLISGLQSEDEADYYCMTWSSNGSGVFGGGTQLTVLG
# notes: IgG4 S228P with the X02.1 VH; VL E17A relative to A02.1
# B2: X02.82 (antibody, V domains shown)
# VH: QLQLQESGPGLVKPSETLSLTCTVSGGSISSSSYYWSWIRQHPGKGLEWIGYIYYSGSTNYNPSLKSRVTISVDTLKNQISLRLTSVTAADTAVYYCARVGGAGGWPMDVWGQGTTVTVSS
# VL: B1 VL with A16E, Y51R
# notes: IgG4 S228P with the X02.1 VH; VL Y49R relative to A02.1
# B3: X02.85 (antibody, V domains shown)
# VH: B2 VH
# VL: QAVLTQPASLSASPGESARLTCTLPSDINVRYYNIYWYQQKPGSPPRYLLYYYSDSHKGQGSGVPSRFSGSKSTNSGILLISGLQSEDEADYYCMTWSSNGSGVFGGGTQLTVLG
# notes: IgG4 S228P with the X02.1 VH; VL residues D(L66A) and V(L66B) of A02.1 are deleted
# B4: X02.86 (antibody, V domains shown)
# VH: B2 VH
# VL: B1 VL with A16E, D27G
# notes: IgG4 S228P with the X02.1 VH; VL D(27A)G relative to A02.1
# B5: X02.91 (antibody, V domains shown)
# VH: B2 VH
# VL: B1 VL with A16E, P25R
# notes: IgG4 S228P with the X02.1 VH; VL P26R relative to A02.1
# B6: X02.8 (antibody, human IgG4 S228P)
# heavy: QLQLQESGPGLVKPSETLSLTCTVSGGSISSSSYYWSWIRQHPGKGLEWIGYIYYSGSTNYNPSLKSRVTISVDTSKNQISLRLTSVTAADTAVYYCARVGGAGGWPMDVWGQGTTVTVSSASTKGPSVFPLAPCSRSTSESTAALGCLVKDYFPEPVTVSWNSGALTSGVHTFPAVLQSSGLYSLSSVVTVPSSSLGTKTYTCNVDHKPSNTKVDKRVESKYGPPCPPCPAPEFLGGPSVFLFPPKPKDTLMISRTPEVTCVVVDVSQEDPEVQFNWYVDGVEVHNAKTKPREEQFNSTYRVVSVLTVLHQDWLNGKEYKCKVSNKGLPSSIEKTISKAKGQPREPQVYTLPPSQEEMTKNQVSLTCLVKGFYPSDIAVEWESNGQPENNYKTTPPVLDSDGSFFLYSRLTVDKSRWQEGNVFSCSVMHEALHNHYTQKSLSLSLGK
# VL: B1 VL with A16E
# notes: IgG4 S228P; VH L74S relative to X02.1
# B7: X02.11 (antibody, human IgG4 S228P)
# heavy: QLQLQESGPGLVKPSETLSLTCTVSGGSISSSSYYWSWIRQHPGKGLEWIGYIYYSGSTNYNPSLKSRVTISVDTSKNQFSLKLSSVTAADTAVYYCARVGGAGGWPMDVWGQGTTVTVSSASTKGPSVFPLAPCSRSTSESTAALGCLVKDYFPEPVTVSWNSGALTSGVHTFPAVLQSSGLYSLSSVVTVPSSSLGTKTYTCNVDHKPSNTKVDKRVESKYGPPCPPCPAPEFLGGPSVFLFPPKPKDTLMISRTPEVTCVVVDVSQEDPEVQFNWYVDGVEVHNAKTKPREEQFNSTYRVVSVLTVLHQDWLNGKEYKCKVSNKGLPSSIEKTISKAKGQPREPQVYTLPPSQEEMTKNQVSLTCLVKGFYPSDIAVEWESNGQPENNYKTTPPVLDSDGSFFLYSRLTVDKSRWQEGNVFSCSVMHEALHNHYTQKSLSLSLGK
# VL: B1 VL with A16E
# notes: IgG4 S228P; VH L74S, I78F, R81K, T(82A)S relative to X02.1
# B8: X02.76 (antibody, human IgG4 S228P)
# heavy: not shown
# VL: B1 VL with A16E
# notes: IgG4 S228P; VH M(100C)L relative to X02.1
# B9: X02.77 (antibody, human IgG4 S228P)
# heavy: not shown
# VL: B1 VL with A16E
# notes: IgG4 S228P; VH D101E relative to X02.1
# B10: X02.74 (antibody, human IgG4 S228P, V domains shown)
# VH: B2 VH with M108L, D109E
# VL: B1 VL with A16E
# notes: IgG4 S228P; VH M(100C)L, D101E relative to X02.1
# B11: X02.72 (antibody, human IgG4 S228P)
# heavy: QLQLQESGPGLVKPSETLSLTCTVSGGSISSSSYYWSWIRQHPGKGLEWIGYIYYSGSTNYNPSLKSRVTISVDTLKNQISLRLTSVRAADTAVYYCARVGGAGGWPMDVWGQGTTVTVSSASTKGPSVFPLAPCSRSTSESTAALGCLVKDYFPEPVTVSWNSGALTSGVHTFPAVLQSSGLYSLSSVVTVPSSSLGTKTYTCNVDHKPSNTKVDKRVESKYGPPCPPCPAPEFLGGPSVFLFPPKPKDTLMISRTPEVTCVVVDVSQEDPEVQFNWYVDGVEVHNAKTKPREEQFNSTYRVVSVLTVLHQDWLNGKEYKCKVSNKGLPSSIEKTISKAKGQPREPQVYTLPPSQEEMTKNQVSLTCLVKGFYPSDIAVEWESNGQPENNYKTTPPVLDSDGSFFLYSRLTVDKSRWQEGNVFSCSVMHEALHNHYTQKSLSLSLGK
# VL: B1 VL with A16E
# notes: IgG4 S228P; VH T83R relative to X02.1
# B12: X02.70 (antibody, human IgG4 S228P)
# heavy: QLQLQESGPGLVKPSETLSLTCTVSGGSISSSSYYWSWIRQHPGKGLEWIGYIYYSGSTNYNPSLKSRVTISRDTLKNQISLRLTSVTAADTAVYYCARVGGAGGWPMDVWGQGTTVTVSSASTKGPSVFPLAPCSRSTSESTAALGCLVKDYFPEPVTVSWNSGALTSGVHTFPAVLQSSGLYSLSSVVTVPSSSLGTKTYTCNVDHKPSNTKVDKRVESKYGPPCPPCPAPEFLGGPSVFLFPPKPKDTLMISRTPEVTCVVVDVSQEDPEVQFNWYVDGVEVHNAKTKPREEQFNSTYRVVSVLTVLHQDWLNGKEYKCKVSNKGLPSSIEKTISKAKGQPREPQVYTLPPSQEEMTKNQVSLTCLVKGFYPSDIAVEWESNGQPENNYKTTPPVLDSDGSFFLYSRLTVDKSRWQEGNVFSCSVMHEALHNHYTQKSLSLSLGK
# VL: B1 VL with A16E
# notes: IgG4 S228P; VH V71R relative to X02.1
# B13: X02.68 (antibody, human IgG4 S228P, V domains shown)
# VH: B2 VH with T23K
# VL: B1 VL with A16E
# notes: IgG4 S228P; VH T23K relative to X02.1
# B14: X02.75 (antibody, human IgG4 S228P)
# heavy: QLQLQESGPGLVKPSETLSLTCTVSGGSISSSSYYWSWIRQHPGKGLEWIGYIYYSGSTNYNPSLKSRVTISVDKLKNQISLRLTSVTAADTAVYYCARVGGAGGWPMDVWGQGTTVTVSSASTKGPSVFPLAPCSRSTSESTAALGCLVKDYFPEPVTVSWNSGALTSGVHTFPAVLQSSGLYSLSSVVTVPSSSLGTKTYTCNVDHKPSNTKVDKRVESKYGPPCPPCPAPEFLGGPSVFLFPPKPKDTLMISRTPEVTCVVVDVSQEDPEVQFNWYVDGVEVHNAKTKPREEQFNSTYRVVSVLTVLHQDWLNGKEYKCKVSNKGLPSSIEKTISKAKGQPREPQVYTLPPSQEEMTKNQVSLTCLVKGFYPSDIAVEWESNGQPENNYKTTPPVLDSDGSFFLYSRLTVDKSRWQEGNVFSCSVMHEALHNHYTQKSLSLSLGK
# VL: B1 VL with A16E
# notes: IgG4 S228P; VH T73K relative to X02.1
# B15: X02.73 (antibody, human IgG4 S228P)
# heavy: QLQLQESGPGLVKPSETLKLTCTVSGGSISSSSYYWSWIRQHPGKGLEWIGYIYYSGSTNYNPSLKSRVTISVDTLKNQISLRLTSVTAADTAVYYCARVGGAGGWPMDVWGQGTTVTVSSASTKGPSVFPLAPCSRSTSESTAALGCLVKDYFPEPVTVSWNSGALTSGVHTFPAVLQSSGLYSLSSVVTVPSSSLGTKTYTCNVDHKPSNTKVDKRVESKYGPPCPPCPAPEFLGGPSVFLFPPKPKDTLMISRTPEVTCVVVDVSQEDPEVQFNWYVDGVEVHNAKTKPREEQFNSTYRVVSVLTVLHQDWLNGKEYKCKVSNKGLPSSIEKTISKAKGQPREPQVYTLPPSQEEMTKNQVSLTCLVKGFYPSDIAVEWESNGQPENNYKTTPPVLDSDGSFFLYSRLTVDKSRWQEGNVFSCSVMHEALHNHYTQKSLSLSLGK
# VL: B1 VL with A16E
# notes: IgG4 S228P; VH S19K relative to X02.1
# B16: X02.102 (antibody, V domains shown)
# VH: B2 VH
# VL: B1 VL with A16E, T76A
# notes: IgG4 S228P with the X02.1 VH; VL T68A relative to A02.1
# B17: X02.103 (antibody, V domains shown)
# VH: B2 VH
# VL: B1 VL with A16E, S78T
# notes: IgG4 S228P with the X02.1 VH; VL S70T relative to A02.1
# B18: X02.101 (antibody, V domains shown)
# VH: B2 VH
# VL: B1 VL with A16E, V74A
# notes: IgG4 S228P with the X02.1 VH; VL V(66B)A relative to A02.1
# B19: X02.96 (antibody)
# heavy: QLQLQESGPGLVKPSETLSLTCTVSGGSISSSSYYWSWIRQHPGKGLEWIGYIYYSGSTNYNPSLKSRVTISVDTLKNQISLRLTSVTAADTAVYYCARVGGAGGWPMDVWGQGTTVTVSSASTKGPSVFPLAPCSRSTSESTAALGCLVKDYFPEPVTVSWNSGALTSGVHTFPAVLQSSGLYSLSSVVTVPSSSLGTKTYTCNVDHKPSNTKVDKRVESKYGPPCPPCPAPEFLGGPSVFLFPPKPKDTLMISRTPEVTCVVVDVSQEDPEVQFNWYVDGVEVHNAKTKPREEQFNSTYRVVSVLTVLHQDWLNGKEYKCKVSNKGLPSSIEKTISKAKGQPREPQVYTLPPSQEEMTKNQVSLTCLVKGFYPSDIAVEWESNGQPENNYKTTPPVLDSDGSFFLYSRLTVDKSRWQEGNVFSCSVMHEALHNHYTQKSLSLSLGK
# VL: B1 VL with A8P, A16E
# notes: IgG4 S228P with the X02.1 VH; VL A8P relative to A02.1
# B20: X02.71 (antibody, human IgG4 S228P)
# heavy: not shown
# VL: B1 VL with A16E
# notes: IgG4 S228P; VH I29V relative to X02.1
# B21: X02.94 (antibody, V domains shown)
# VH: B2 VH
# VL: B1 VL with A16E, M97L
# notes: IgG4 S228P with the X02.1 VH; VL M89L relative to A02.1
# B22: X02.81 (antibody, V domains shown)
# VH: B2 VH
# VL: B1 VL with A16E, N77A
# notes: IgG4 S228P with the X02.1 VH; VL N69A relative to A02.1
# B23: X02.93 (antibody, V domains shown)
# VH: B2 VH
# VL: B1 VL with A16E, M97I
# notes: IgG4 S228P with the X02.1 VH; VL M89I relative to A02.1
# B24: X02.90 (antibody, V domains shown)
# VH: B2 VH
# VL: B1 VL with A16E, N102T
# notes: IgG4 S228P with the X02.1 VH; VL N94T relative to A02.1
# B25: X02.80 (antibody, V domains shown)
# VH: B2 VH
# VL: B1 VL with A16E, N102Q
# notes: IgG4 S228P with the X02.1 VH; VL N94Q relative to A02.1
# B26: X02.87 (antibody, V domains shown)
# VH: B2 VH
# VL: B1 VL with A16E, S104A
# notes: IgG4 S228P with the X02.1 VH; VL S96A relative to A02.1
# B27: X02.9 (antibody, human IgG4 S228P)
# heavy: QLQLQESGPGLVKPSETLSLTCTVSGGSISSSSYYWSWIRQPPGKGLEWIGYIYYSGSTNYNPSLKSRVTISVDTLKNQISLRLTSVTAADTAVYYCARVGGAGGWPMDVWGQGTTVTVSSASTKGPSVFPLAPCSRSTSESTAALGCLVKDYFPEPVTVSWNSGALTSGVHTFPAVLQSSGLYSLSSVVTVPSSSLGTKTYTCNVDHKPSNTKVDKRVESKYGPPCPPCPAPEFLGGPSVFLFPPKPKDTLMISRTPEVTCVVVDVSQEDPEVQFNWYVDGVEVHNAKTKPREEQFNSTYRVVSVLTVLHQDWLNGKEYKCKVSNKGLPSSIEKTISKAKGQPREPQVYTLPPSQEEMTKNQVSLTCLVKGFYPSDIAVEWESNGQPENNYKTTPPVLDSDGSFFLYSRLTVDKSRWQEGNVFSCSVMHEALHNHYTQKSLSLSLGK
# VL: B1 VL with A16E
# notes: IgG4 S228P; VH H40P relative to X02.1
# B28: X02.108 (antibody, human IgG4 S228P, V domains shown)
# VH: B2 VH with I80F
# VL: B1 VL with A16E
# notes: IgG4 S228P; VH I78F relative to X02.1
# B29: X02.10 (antibody, human IgG4 S228P)
# heavy: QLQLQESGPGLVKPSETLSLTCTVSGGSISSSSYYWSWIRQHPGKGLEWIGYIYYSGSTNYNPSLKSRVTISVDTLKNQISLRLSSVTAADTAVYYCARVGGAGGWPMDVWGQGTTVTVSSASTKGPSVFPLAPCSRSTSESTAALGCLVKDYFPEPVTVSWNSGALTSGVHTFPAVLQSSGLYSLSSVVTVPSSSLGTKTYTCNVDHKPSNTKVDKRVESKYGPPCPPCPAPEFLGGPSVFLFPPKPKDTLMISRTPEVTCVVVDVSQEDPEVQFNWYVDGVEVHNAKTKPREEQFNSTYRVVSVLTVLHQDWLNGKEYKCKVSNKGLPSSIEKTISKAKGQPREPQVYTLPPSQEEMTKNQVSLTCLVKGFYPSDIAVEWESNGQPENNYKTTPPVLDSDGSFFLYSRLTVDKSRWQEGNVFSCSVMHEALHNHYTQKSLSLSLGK
# VL: B1 VL with A16E
# notes: IgG4 S228P; VH T(82A)S relative to X02.1
# B30: X02.110 (antibody, human IgG4 S228P, V domains shown)
# VH: B2 VH with R83K
# VL: B1 VL with A16E
# notes: IgG4 S228P; VH R81K relative to X02.1
# B31: X02.105 (antibody, V domains shown)
# VH: B2 VH
# VL: B1 VL with A16E, S100P
# notes: IgG4 S228P with the X02.1 VH; VL S92P relative to A02.1
# B32: X02.104 (antibody, V domains shown)
# VH: B2 VH
# VL: B1 VL with A16E, T98I
# notes: IgG4 S228P with the X02.1 VH; VL T90I relative to A02.1
# B33: X02.95 (antibody)
# heavy: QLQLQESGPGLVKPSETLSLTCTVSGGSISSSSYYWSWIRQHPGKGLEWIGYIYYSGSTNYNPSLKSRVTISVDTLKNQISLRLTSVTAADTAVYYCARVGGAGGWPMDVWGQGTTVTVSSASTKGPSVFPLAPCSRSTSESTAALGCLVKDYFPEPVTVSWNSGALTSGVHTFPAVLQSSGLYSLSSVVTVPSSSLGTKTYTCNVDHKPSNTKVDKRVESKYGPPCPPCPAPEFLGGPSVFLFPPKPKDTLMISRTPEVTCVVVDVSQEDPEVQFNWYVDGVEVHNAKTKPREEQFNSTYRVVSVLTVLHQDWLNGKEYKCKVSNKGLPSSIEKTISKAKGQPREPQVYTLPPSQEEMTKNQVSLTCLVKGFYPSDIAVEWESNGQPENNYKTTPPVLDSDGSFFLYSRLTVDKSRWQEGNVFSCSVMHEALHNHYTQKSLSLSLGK
# VL: B1 VL with A2P, A16E
# notes: IgG4 S228P with the X02.1 VH; VL A2P relative to A02.1
# B34: X02.97 (antibody)
# heavy: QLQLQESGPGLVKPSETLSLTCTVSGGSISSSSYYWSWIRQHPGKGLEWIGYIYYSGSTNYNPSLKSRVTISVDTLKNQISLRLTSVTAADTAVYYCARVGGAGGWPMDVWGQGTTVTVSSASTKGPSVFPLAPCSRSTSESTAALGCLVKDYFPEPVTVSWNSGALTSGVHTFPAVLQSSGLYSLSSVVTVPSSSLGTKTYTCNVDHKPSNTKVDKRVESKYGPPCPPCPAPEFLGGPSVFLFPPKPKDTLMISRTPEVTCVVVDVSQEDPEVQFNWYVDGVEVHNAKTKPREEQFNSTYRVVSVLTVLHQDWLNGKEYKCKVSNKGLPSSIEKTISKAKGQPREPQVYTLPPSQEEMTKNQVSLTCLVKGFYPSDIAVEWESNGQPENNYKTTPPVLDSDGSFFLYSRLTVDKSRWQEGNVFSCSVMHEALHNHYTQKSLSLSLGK
# VL: B1 VL with L10S, A16E
# notes: IgG4 S228P with the X02.1 VH; VL L11S relative to A02.1
# B35: X02.106 (antibody, V domains shown)
# VH: B2 VH
# VL: B1 VL with A16E, G103A
# notes: IgG4 S228P with the X02.1 VH; VL G95A relative to A02.1
# B36: X02.99 (antibody, V domains shown)
# VH: B2 VH
# VL: B1 VL with A16E, Y32S
# notes: IgG4 S228P with the X02.1 VH; VL Y30S relative to A02.1
# B37: X02.98 (antibody, V domains shown)
# VH: B2 VH
# VL: B1 VL with A16E, R31G
# notes: IgG4 S228P with the X02.1 VH; VL R29S relative to A02.1
# B38: X02.100 (antibody, V domains shown)
# VH: B2 VH
# VL: B1 VL with A16E, H57D
# notes: IgG4 S228P with the X02.1 VH; VL H(54A)D relative to A02.1
# Target: T1, Human CD38 on CD38-positive myeloma cells (ARP-1, H929) (human, UniProt P28907 43-300)
# T1 construct: Endogenous CD38 on the human myeloma cell lines ARP-1 and H929, used in flow cytometry; also called NCI-H929
# Assay: flow cytometry, ARP-1 cells (CD38-positive)
# Protocol: The ability of the antibodies or antibody-interferon constructs to bind the human CD38-positive myeloma cell lines ARP-1 or H929 in flow cytometry-based assays was tested. ARP-1 cells or H929 cells (5×10⁵, as judged by trypan blue exclusion) were incubated with each protein or with a human IgG4 monoclonal antibody with irrelevant specificity protein construct at various concentrations in 50 μL of FACS buffer (PBS plus 1% fetal calf serum, FCS, 0.2M HEPES, 0.5M EDTA) in 96 well plates for 60 minutes on ice in the dark. Cells were washed three times with FACS buffer before incubation for 30 minutes in 50 μL of FACS buffer containing goat anti-human IgG (Fc-specific, conjugated to fluorescein isothiocyanate, FITC; Sigma-Aldrich, St. Louis, Mo.). After washing three times with FACS buffer, cells were fixed with 50 μL of PBS containing 4% formaldehyde v/v and incubated at 4° C. in the dark for 16 hours. Incubated cells in suspension were diluted with an additional 150 μL of FACS buffer and analyzed for binding by flow cytometry on a FACS Canto II (BD Biosciences, San Diego, Calif.) using forward scatter, side scatter and fluorescence intensity in the FITC channel.
row,EC50 [mg/L],Binder
1,8.2,B1
2,3.8,B2
3,6.3,B3

# Target: T2, Human CD38 (human, UniProt P28907 43-300)
# Assay: SPR (Biacore), antibody from supernatant captured on Protein A, human CD38 injected, 1:1 fit
# Protocol: (§1) The capacity of anti-CD38 antibodies and anti-CD38-attenuated IFN fusion proteins to bind to human CD38 were measured using unpurified transfected cell supernatant prepared 7:1 with Non Specific Binding Reducer (GE Healthcare, Piscataway, N.J.). […] FC2 (or FC4) was used as a reference throughout the experiments. The experiments were run at 37° C. in HBS-P+ buffer (0.01 M HEPES, 0.15 M NaCl, 0.005% v/v Surfactant P20, pH 7.4). At a flow rate of 20 l/min, both flow cells were regenerated with 10 μL 50 mM sodium hydroxide before 40 μL supernatant containing the protein was passed over FC1 (or FC3) only. 301 μL of CD38 (10 g/mL in running buffer) or 30 μL running buffer was injected over FC1 and FC2 with a 5 minute dissociation time. Both surfaces were regenerated twice with sodium hydroxide. Results were generated using the BIAevaluation software provided with the machine. Microsoft Excel was used for calculations. BIAevaluation software automatically subtracted the reference sensorgram giving a trace of FC2-1 (or FC4-3) for each sample. A double reference was performed for each antibody tested by subtracting the sensorgram with a CD38 injection from the sensorgram with a blank running buffer injection. […] BIAevalution was used to fit the sensorgram using a Langmuir 1:1 equation in order to generate an equilibrium association constant (KD)
row,Kd [nM],Binder
1,4.28,B4
2,2.69,B1
3,0.707,B5
4,0.27,B3

# Target: T1, Human CD38 on CD38-positive myeloma …
# Assay: flow cytometry, ARP-1 cells (CD38-positive)
# Remark: another data set of the same source
# Protocol: (§2) The ability of the antibodies or antibody-interferon constructs to bind the human CD38-positive myeloma cell lines ARP-1 or H929 in flow cytometry-based assays was tested. ARP-1 cells or H929 cells (5×10⁵, as judged by trypan blue exclusion) were incubated with each protein or with a human IgG4 monoclonal antibody with irrelevant specificity protein construct at various concentrations in 50 μL of FACS buffer (PBS plus 1% fetal calf serum, FCS, 0.2M HEPES, 0.5M EDTA) in 96 well plates for 60 minutes on ice in the dark. Cells were washed three times with FACS buffer before incubation for 30 minutes in 50 μL of FACS buffer containing goat anti-human IgG (Fc-specific, conjugated to fluorescein isothiocyanate, FITC; Sigma-Aldrich, St. Louis, Mo.). After washing three times with FACS buffer, cells were fixed with 50 μL of PBS containing 4% formaldehyde v/v and incubated at 4° C. in the dark for 16 hours. Incubated cells in suspension were diluted with an additional 150 μL of FACS buffer and analyzed for binding by flow cytometry on a FACS Canto II (BD Biosciences, San Diego, Calif.) using forward scatter, side scatter and fluorescence intensity in the FITC channel. The value reported is the mean fluorescence intensity (MFI).
row,EC50 [mg/L],Binder
1,18.3,B6
2,18.1,B7

# Target: T2, Human CD38
# Assay: SPR (Biacore), antibody from supernatant captured on Protein A, human CD38 injected, 1:1 fit
# Remark: another data set of the same source
# Protocol: as §1
row,Kd [nM],Binder
1,0.000158,B8
2,0.00911,B9
3,0.0685,B10

# Target: T2, Human CD38
# Assay: as above
# Remark: another data set of the same source
# Protocol: as §1
row,Kd [nM],Binder
1,1.63,B11
2,3.54,B12
3,0.0106,B13
4,0.638,B14
5,0.385,B15

# Target: T1, Human CD38 on CD38-positive myeloma …
# Assay: flow cytometry, ARP-1 cells (CD38-positive)
# Remark: another data set of the same source
# Protocol: Antibodies purified from CHO cell supernatants were subsequently tested in flow cytometry-based binding assays to the CD38 positive cell line ARP-1.
# as §2
row,EC50 [mg/L],Binder
1,20.4,B16
2,9.4,B17
3,13.7,B18
4,30,B19

# Target: T1, Human CD38 on CD38-positive myeloma …
# Assay: flow cytometry, ARP-1 cells (CD38-positive)
# Remark: another data set of the same source
# Protocol: These heavy chain variable regions were formatted on an IgG4 constant region containing an S228P substitution.
# as §2
row,EC50 [mg/L],Binder
1,3.6,B11
2,7.2,B12
3,4.9,B14
4,4.3,B15

# Target: T2, Human CD38
# Assay: SPR (Biacore), antibody from supernatant captured on Protein A, human CD38 injected, 1:1 fit
# Remark: another data set of the same source
# Protocol: as §1
row,Kd [nM],Binder
1,0.129,B20

# Target: T2, Human CD38
# Assay: as above
# Remark: another data set of the same source
# Protocol: as §1
row,Kd [nM],Binder
1,0.00348,B21
2,0.267,B22
3,0.0256,B23
4,0.552,B24
5,1.44,B25
6,1.99,B26

# Target: T2, Human CD38
# Assay: as above
# Remark: another data set of the same source
# Protocol: as §1
row,Kd [nM],Binder
1,26.3,B27
2,23,B6
3,23.9,B7
4,26.3,B28
5,20.7,B29
6,20.7,B30

# Target: T2, Human CD38
# Assay: as above
# Remark: another data set of the same source
# Protocol: as §1
row,Kd [nM],Binder
1,33.1,B31
2,10,B32
3,0.0044,B33
4,0.00751,B34
5,0.12,B16
6,1.28,B17
7,0.0289,B18
8,0.25,B19
9,44.7,B35
10,0.00321,B36
11,0.00584,B37
12,160,B38

# Reference: US20180305460A1 (Teva, published 2018)
